According to patent US20190390204A1:

How the values were obtained:
Experiment in all cases: cell-based or functional assay
[1] = target: LITE 1.9.1 TALE-CIB1 construct (mutated NLS, Δ318-334, AD5 NES)
[2] = target: TALE(Ngn2)-NLS-CRY2PHR
[3] = target: LITE2.0 TALE-CIB1 component

Substance CRY2PHR-NLS-VP64_2A_GFP has a background mRNA increase (no light), LITE1.9.1 [1] of 1.06 fold and a light induction (light/no-light), LITE1.9.1 [1] of 4 fold.

Work on CIB1-NLS-VP64_2A_GFP yielded a Neurog2 expression (qPCR) after 0.5 h of light stimulation, vs YFP samples [2] of 5 fold and a Neurog2 expression (qPCR), peak at 12 h of light stimulation, vs YFP samples [2] of 19 fold.

In the case of LITE2.0 CRY2PHR-VP64 component, the light induction (light/no-light ratio of Neurog2 expression), LITE2.0 [3] is reported as 20.4.
